{"source": "paper PMC4824898", "about": "(2016)", "target": "rabbit skeletal muscle actin (Oryctolagus cuniculus (Rabbit), UniProt P68135)", "assay": "actin co-sedimentation; polymerised (filamentous) actin", "data": [{"binder": "actin-binding domain (ABD) of S. pombe α-actinin (protein) MQANQWQSVQNRTFTKWFNTKLSSRDLPSVFDLRKDLSDGILLIQLLEIIGDENLGRYNRNPRMRVHRLENVNKALEYIKSKGMPLTNIGPADIVDGNLKLILGLIWTLILRFTIADINEEGLTAKEGLLLWCQRKTANYHPEVDVQDFTRSWTNGLAFCALIHQHRPDLLDYNKLDKKNHRANMQLAFDIAQKSIGIPRLIEVEDVCDVDRPDERSIMTYVAEYFHAFSTLDK", "values": [{"measurement": "binding result", "result": "no binding"}]}]}
